Laboratory results published in patent publication US20240327512A1 (DUKE UNIVERSITY, published 2024).

Legend:
[1] = target: T1, human TREM2 (Triggering Receptor Expressed on Myeloid cells-2), wild-type (human, UniProt Q9NZC2 19-230); assay: hybridoma supernatant screen: peptide ELISA and detection of TREM2 on the cell surface
T1 construct: whole, on cells; also called wt TREM2; human wild-type TREM2
T1 sequence (looked up): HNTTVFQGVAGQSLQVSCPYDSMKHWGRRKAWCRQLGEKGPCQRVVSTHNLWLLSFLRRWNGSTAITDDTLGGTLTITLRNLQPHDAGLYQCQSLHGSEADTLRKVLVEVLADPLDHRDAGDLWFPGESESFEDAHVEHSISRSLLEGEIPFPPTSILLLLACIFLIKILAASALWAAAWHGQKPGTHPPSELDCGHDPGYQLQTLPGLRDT
Description: Human TREM2-reactive hybridoma supernatants are screened for their ability to detect TREM2 on the cell surface of HEK293 Flp-In cells stably overexpressing human wild-type TREM2. This procedure is described in Kleinberger, G., et al., TREM2 mutations implicated in neurodegeneration impair cell surface transport and phagocytosis. Sci Transl Med, 2014. 6(243): p. 243. In particular, HEK293 Flp-In cells either expressing human full-length TREM2 or empty vector (control) are incubated with the respective TREM2-reactive supernatants. Binding of TREM2-reactive supernatants is visualized using isotype-specific antibodies. A detailed description of the generation and selection of monoclonal antibodies against the TREM2 cleavage site is given in the Examples.
A peptide comprising the amino acid sequence of residues 145-155 (SEQ ID NO:2) of human TREM2 or residues 153-162 (SEQ ID NO:3) of human TREM2 was synthesized and coupled at the N-terminus to ovalbumin or biotin (Peps4LS, Heidelberg, Germany). Rats were immunized subcutaneously (s.c.) and intraperitoneally (i.p.) with a mixture of 50 μg OVA-coupled peptide in […] PBS, 5 nmol CpG2006 (TIB MOLBIOL, Berlin, Germany), and […] incomplete Freund's adjuvant. After 6 weeks, a boost without Freund's adjuvant was given i.p. and s.c. 3 days before fusion. Fusion of the myeloma cell line P3X63-Ag8.653 with the rat immune spleen cells was performed using polyethylene glycol 1500 according to standard procedure (Koehler and Milstein, Nature. 1975, 256:495-497). After fusion, the cells were plated in 96-well plates using RPMI 1640 with 20% fetal calf serum, penicillin/streptomycin, glutamine, pyruvate, and non-essential amino acids supplemented with HAT HybriMax medium supplement (Sigma,). Hybridoma supernatants were tested in an enzyme-linked immunoassay using biotinylated peptides (0.2 μg/ml) comprising the amino acid sequence of residues 145-155 of human TREM2 or residues 153-162 of human TREM2 bound to avidin-coated plates. After blocking with PBS/2% FCS, hybridoma supernatants were added for 30 min. After one wash with PBS, bound antibodies were detected with a cocktail of HRP-conjugated mAbs against the four rat IgG isotypes. HRP was visualized with ready to use TMB substrate (1-Step™ Ultra TMB-ELISA, Thermo).

[2] = target: T1, human TREM2 (Triggering Receptor …); assay: cell-based or functional assay

B1: antibody clone 21A3 (antibody, V domains shown)
VH: EVKLLESGGGLVQPGGSMRLSCAASGFTFTDFYMNWIRQPAGKAPEWLGLIRNKANGYTTQYNPSVKGRFTISRDNTQNMLYLQMNTLRGEDTATYYCARIGINNGGSLDYWGQGVMVTVSS
VL: DILINQSPASLTVSAGEKVTMSCKSSQSLLYSEKNQDYLAWYQQKPGQSPKLLMYGASYRHTGVPDRFTGSGSGTDFTLTISSVQAEDLADYYCEQTYSYPYTFGAGTKLELK
notes: Rat monoclonal IgG from hybridoma; also called TREMX antibody
B1: binds [1].

B2: antibody clone 8A11 (antibody, V domains shown)
VH: EVKLLESGGGLVQPGGSMRLSCAASGFTFTDFYMNWIRQPAGKAPEWLGLIRNKTKGYTTEYNTSVKGRFTISRDNTQNMLYLQMNSLRPEDTATYYCARIGVNNGGSLDYWGQGVMVTVSS
VL: DILIIQSPASLTVSAGARVTMSCKSSQSLLYSENNQDYLAWYQQKPGQFPKLLIYGASNRHTGVPDRFTGSGSGTDFTLTISSVQAEDLADYYCEQTYSYPYTFGAGTKLELK
notes: as for B1
B2: binds [1].

B3: antibody clone 1G6 (antibody, V domains shown)
VH: EVKLLESGGGLVQPGGSLRLSCVASGFTFTDFYMNWIRQPAGKAPEWLGLIRNKANGFTTEYNPSVKGRFTISRDNTQHMLYLQMNTLRAEDTATYYCARIGINNGGSLDYWGQGVMVTVSS
VL: DILINQSPASLTVSTGEKVTMSCKSSQSLLYSENKQDYLAWYQQKPGQFPKLLIYGASNRHTGVPDRFTGSGSGTDFTLTINIVQAEDLADYYCEQTYSYPYTFGAGTKLELK
notes: as for B1
B3: binds [1].

B4: antibody clone 7A12 (antibody, V domains shown)
VH: EVKLLESGGGLVQPGGSMRLSCAASGFTFTDFYMNWIRQPAGKAPEWLGLIRNKANGYTTQYNPSVKGRFTISRDNTQNMLYLQMNTLRGEDTATYYCARIGINNGGSLDYWGQGVMVTVSS
VL: DILINQSPASLTVSAGEKVTMSCKSSQSLLYSEKNQDYLAWYQQKPGQSPKLLMYGASYRHTGVPDRFTGSGSGTDFTLTISSVQAEDLADYYCEQTYSYPYTFGAGTKLELK
notes: as for B1
B4: binds [1].

B5: antibody clone 10C3 (antibody, V domains shown)
VH: EVKLLESGGGLVQPGGSMRLSCAASGFTFTDFYMNWIRQPAGETPEWLGLIRNKTKGYTTEYNPSVKGRFTISRDNTQNMLYLQMNSLRPEDTATYYCARIGTNNGGSLDYWGQGVMVTVSS
VL: DILIIQSPASLTVSAGARVTMSCKSSQSLLYSENNQDYLAWYQQKPGQFPKLLIYGASNRHTGVPDRFTGSGSGTDFTLTISSVQAEDLADYYCEQTYSYPYTFGAGTKLELK
notes: as for B1
B5: binds [1].

B6: antibody clone 18F9 (antibody, V domains shown)
VH: EVKLLESGGGLVQPGGSMRLSCVVSGFTFTDFYMNWIRQAAGKAPEWLGLIRNKVNGYRTEYNPSVKGRFTISRDNIQNMLYLQMNTLRAEDTATYYCARIGINNGGSLDYWGQGVMVTVSS
VL: DILINQSPASLTVSAGEKVTMSCKSSQSLLYSENNQDYLAWYQQKPGQFPKLLIYGASNRHTGVPDRFTGSGSGTDFTLTISSVQAEDLADYYCEQTYSYPYTFGAGTKLELK
notes: as for B1
B6: binds [1].

B7: antibody clone 14D8 (antibody, V domains shown)
VH: EVKLLESGGGLVQPGGSMRLSCAASGFTFTDFYMNWIRQPAGKAPEWLGLIRNKANGYTTVYNPSVKGRFTISRDNTQNMLYLQMNTLRGEDTATYYCARIGINNGGSLDYWGQGVMVTVSS
VL: DILINQSPASLTVSTGEKVTMSCRSSQSLLYSEKNQDYLAWYQQKPGQFPKLLIYGASYRHTGVPDRFTGSGSGTDFTLTISSVQAEDLADYYCEQTYSYPYTFGAGTKLELK
notes: as for B1
B7: binds [1].

B8: antibody clone 14D3 (antibody, V domains shown)
VH: EVKLLEFGGGLVQPGGSMRLSCAASGFTFTDFYMNWIRQPAGRAPEWLGLIRNKTKGYTTEYNRSVKGRFTISRDNTQNMLYLQMNSLRPEDTATYYCARIGVNNGGSLDYWGQGVMVTVSS
VL: DILIIQSPASLTVSAGARVTMSCKSSQSLLYSENNQDYLAWYQQKPGQFPKLLIYGASNRHTGVPDRFTGSGSGTDFTLTISSVQAEDLADYYCEQTYSYPYTFGAGTKLELK
notes: as for B1
B8: binds [1].

B9: antibody clone 15C5 (antibody, V domains shown)
VH: EVKLLESGGGLVQPGGSMRLSCAASGFTFTDFYMNWIRQPAGKAPEWLGLIRNKAYGYTTEYNPSVKGRFTISRDNTQDMLYLQMNTLRAEDTATYYCARIGINYGGSLDYWGQGVMVTVSS
VL: DILINQSPASLTVSAGEKVTVSCKSSQSLLYSESNQDYLAWYQQKPGQFPKLLIYGASYRHTGVPDRFTGSGSGTDFTLTISSVQAEDLAHYYCEQTYSYPYTFGAGTKLELK
notes: as for B1
B9: binds [1].

B10: antibody clone 9D10 (antibody, V domains shown)
VH: EVQLVESGGGLVQPGRSLKLSCAASGFTFSDYGMAWVRQAPTKGLEWVASISNSGGRTFYRDSVKGRFTVSRDNAKSTLYLQMDSLRSEGTATYYCTTIGGGSTFDYWGQGVMVTVSS
VL: DVVMTQTPPSLSVAIGQSVSISCKSSQSLVYSDGKTYLHWLLQSPGRSPKRLIYQVSNLGSGVPDRFSGTGSQKDFTLKISRVEAEDLGVYYCAQTTHFPPTFGSGTKLEIK
In the case of B10, the “decrease of TREM2 cleavage” value [2] is reported as about 70% and the “increase of the level of mature TREM2” value [2] is reported as at most 5 fold.

B11: antibody clone 14B3 (antibody, V domains shown)
VH: EVQLVESGGGLVQPGRSLKLSCAASGFSFSNYGMAWVRQAPTKGLEWVASISNNGGRTFYRDSVKGRFTISRDNAKSTLYLQMHSLRSEDTATYYCTTIGGGSTFDYWGQGVMVTVSS
VL: DVVMTQTPPSLSVAIGQSVSMSCKSSQSLVYSDGKTYLHWLLQSPGGSPKRLIYQVSNLGSGVPDRFSGTGSQKDFTLKISRVEAEDLGVYYCAQTTHFPPTFGSGTKLEIK
In the case of B11, the “decrease of TREM2 cleavage” value [2] is reported as about 70% and the “increase of the level of mature TREM2” value [2] is reported as at most 5 fold.

B12: antibody clone 7F12 (antibody, V domains shown)
VH: EVQLVESGGGLVQPGRSLKLSCAASGFTFSNYGMAWVRQAPTKGLEWVTSISYSGGRTYYRDSVKGRFTISRDNAKSTLYLQMDSLRSEDSATYYCTPVGGGSTFDYWGQGVMVTVSS
VL: DVVMTQTPPSLSVAIGQSVSISCKSSQSLVYSDGKTYLHWLLQSPGRSPKRLIYQVSNLGSGVPDRFSGTGSQKDFTLKISRVEAEDLGVYYCAQTTHFPPTFGSGTKLEIK
For B12, the “decrease of TREM2 cleavage” value [2] was about 70% and the “increase of the level of mature TREM2” value [2] was at most 5 fold.

B13: antibody clone 13F4 (antibody, V domains shown)
VH: EVHLVESGGGLVQPGRSLKLSCAASRFTFSNYGMAWVRQAPTKGLEWVASISNSGGRTFYRDSVKARFTISRDSAESTLYLQMDSLRSEDTATYYCTTIGGGSTFDYWGQGVMVTVSS
VL: DVVMTQTPPSLSVAIGQSVSISCKSSQSLVYSDGKTYLHWLLQSPGRSPKRLIYQVSNLGSGVPDRFSGTGSQKDFTLKISRVEAEDLGVYYCAQTTHFPPTFGSGTKLEIK
For B13, the “decrease of TREM2 cleavage” value [2] was about 70% and the “increase of the level of mature TREM2” value [2] was at most 5 fold.
